Variants at the floor of the assay were thinned out.
How the values were obtained:
biotinyl-Phe-oxazolone = experiment: self-aminoacylation, catalytic enhancement (BFO) (fold over background); higher = more active; k-Seq, kA / k0A0; sequences stand for … in GGGAAUGGAUCCACAUCUACGAAUUC…UUCACUGCAGACUUGACGAAGCUG
Summary of the method: (§1)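 Catalytic enhancement equals the median kA over the uncatalyzed rate, the latter read from the low-activity peak of a bimodal Gaussian fit. Values of kA came from fitting each sequence's fraction reacted to a pseudo-first-order model, with 1000 bootstraps. Reacted RNA was captured with streptavidin and quantified by triplicate qPCR and Illumina sequencing after 90 minutes at room temperature with 2–1250 μM biotinyl-aminoacyl-oxazolone and 0.43 μM mutagenized RNA pools bearing a 21-nt variable region.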

biotinyl-Ile-oxazolone = experiment: self-aminoacylation, catalytic enhancement (BIO) (fold over background); higher = more active; k-Seq, kA / k0A0; sequences stand for … in GGGAAUGGAUCCACAUCUACGAAUUC…UUCACUGCAGACUUGACGAAGCUG
Summary of the method: as §1

biotinyl-Met-oxazolone = experiment: self-aminoacylation, catalytic enhancement (BMO) (fold over background); higher = more active; k-Seq, kA / k0A0; sequences stand for … in GGGAAUGGAUCCACAUCUACGAAUUC…UUCACUGCAGACUUGACGAAGCUG
Summary of the method: as §1

biotinyl-Val-oxazolone = experiment: self-aminoacylation, catalytic enhancement (BVO) (fold over background); higher = more active; k-Seq, kA / k0A0; sequences stand for … in GGGAAUGGAUCCACAUCUACGAAUUC…UUCACUGCAGACUUGACGAAGCUG
Summary of the method: as §1

biotinyl-Leu-oxazolone = experiment: self-aminoacylation, catalytic enhancement (BLO) (fold over background); higher = more active; k-Seq, kA / k0A0; sequences stand for … in GGGAAUGGAUCCACAUCUACGAAUUC…UUCACUGCAGACUUGACGAAGCUG
Summary of the method: as §1

biotinyl-Trp-oxazolone = experiment: self-aminoacylation, catalytic enhancement (BWO) (fold over background); higher = more active; k-Seq, kA / k0A0; sequences stand for … in GGGAAUGGAUCCACAUCUACGAAUUC…UUCACUGCAGACUUGACGAAGCUG
Summary of the method: as §1

Sequence	self-aminoacylation (biotinyl-Phe-oxazolone)	self-aminoacylation (biotinyl-Ile-oxazolone)	self-aminoacylation (biotinyl-Met-oxazolone)	self-aminoacylation (biotinyl-Val-oxazolone)	self-aminoacylation (biotinyl-Leu-oxazolone)	self-aminoacylation (biotinyl-Trp-oxazolone)
CCACAAUUCAAGCAAUCGGUG [Fam1B.1 aminoacylation ribozyme variant]	60.3	6.36	8.06	5.99	12.3	8.78
CCACAAUUCAAGCAAUCGGUU [Fam1B.1 aminoacylation ribozyme variant]	1.16	1.68	1.76	1.65	1.39	1.55
CCACAAUUCAAGCGAUCGGUC [Fam1B.1 aminoacylation ribozyme variant]	1.53	1.37	1.28	1.47	1.56	1.12
CCACAAUUUAAGCAAUCGGUC [Fam1B.1 aminoacylation ribozyme variant]	1.12	1.2	0.776	1.02	0.824	0.864
CCACACAUCAAGCAAUCGCUC [Fam1B.1 aminoacylation ribozyme variant]	0.869	1.43	1.04	1.68	1.21	1.64
CCACACAUCAAGCAUUCGGUC [Fam1B.1 aminoacylation ribozyme variant]	1.02	1.75	1.6	1.64	1.48	1.19
CCACACAUCAAGCGAUCGGUC [Fam1B.1 aminoacylation ribozyme variant]	0.766	0.954	1.09	1.07	0.969	1.38
CCACACCCCAAGCAAUCGGUC [Fam1B.1 aminoacylation ribozyme variant]	1.04	1.6	0.627	1.37	1.04	0.888
CCACACCUAAAGCAAUCGGUC [Fam1B.1 aminoacylation ribozyme variant]	1.09	1	0.876	1.31	1.02	1.01
CCACACCUCAAGCAAUCGGGC [Fam1B.1 aminoacylation ribozyme variant]	1.92	1.86	1.49	2.33	1.71	2.11
CCACACCUCAAGCAAUCGGUG [Fam1B.1 aminoacylation ribozyme variant]	32.5	3.55	5.05	3.17	7.12	5.99
CCACACCUCACGCAAUCGGUC [Fam1B.1 aminoacylation ribozyme variant]	1.34	1.84	1.27	1.99	1.58	2.13
CCACACCUCGAGCAAUCGGUC [Fam1B.1 aminoacylation ribozyme variant]	0.967	1.39	1.18	1.88	1.11	1.95
CCACACGACAAGCAAUCGGUC [Fam1B.1 aminoacylation ribozyme variant]	0.767	0.924	0.948	1.37	0.697	0.908
CCACACGUCAAGCAAGCGGUC [Fam1B.1 aminoacylation ribozyme variant]	0.494	0.826	1.24	1.57	1.19	0.697
CCACACGUCAAGCAAUCGGUC [Fam1B.1 aminoacylation ribozyme variant]	0.848	1.11	1.16	1.65	1.17	1.16
CCACACGUCAAGCAAUGGGUC [Fam1B.1 aminoacylation ribozyme variant]	0.534	1.14	1.36	1.49	1.36	1.02
CCACACGUCAAGCAGUCGGUC [Fam1B.1 aminoacylation ribozyme variant]	0.584	0.995	1.05	1.69	1.26	1.17
CCACACGUCAAGCAUUCGGUC [Fam1B.1 aminoacylation ribozyme variant]	5.03	2.03	2.23	3.21	1.71	2.16
CCACACGUCACGCAAUCGGUC [Fam1B.1 aminoacylation ribozyme variant]	3.73	1.58	2.03	2.16	1.84	1.95
CCACACGUUAAGCAAUCGGUC [Fam1B.1 aminoacylation ribozyme variant]	1.05	1.09	0.992	1.15	0.93	0.931
CCACACUACAAGCAAUCGGCC [Fam1B.1 aminoacylation ribozyme variant]	1.99	2.44	2.7	2.06	1.57	1.78
CCACACUACUAGCAAUCGGUC [Fam1B.1 aminoacylation ribozyme variant]	0.743	0.798	0.694	0.753	0.71	0.623
CCACACUCCAAGCAACCGGUC [Fam1B.1 aminoacylation ribozyme variant]	0.853	1.24	0.814	1.44	1.19	0.654
CCACACUCCAUGCAAUCGGUC [Fam1B.1 aminoacylation ribozyme variant]	0.866	0.982	0.676	1.05	0.901	0.663
CCACACUGCAAGCAACCGGUC [Fam1B.1 aminoacylation ribozyme variant]	0.966	1.53	1.49	1.79	1.25	1.07

Sequence	self-aminoacylation (biotinyl-Phe-oxazolone)	self-aminoacylation (biotinyl-Ile-oxazolone)	self-aminoacylation (biotinyl-Met-oxazolone)	self-aminoacylation (biotinyl-Val-oxazolone)	self-aminoacylation (biotinyl-Leu-oxazolone)	self-aminoacylation (biotinyl-Trp-oxazolone)
CCACACUGCAAGCAAGCGGUC [Fam1B.1 aminoacylation ribozyme variant]	1.05	1.34	0.878	1.61	1.23	1
CCACACUGCAAGCAAUUGGUC [Fam1B.1 aminoacylation ribozyme variant]	0.969	1.14	0.87	0.956	0.961	0.59
CCACACUGCAAGCAUUCGGUC [Fam1B.1 aminoacylation ribozyme variant]	8.26	2.37	2.04	2.96	2.58	3.51
CCACACUGCGAGCAAUCGGUC [Fam1B.1 aminoacylation ribozyme variant]	3.33	1.21	1.07	1.51	1.25	1.21
CCACACUUAAAGCAAUCGGUU [Fam1B.1 aminoacylation ribozyme variant]	0.794	1.08	0.896	1.15	0.849	0.916
CCACACUUAAAGCAGUCGGUC [Fam1B.1 aminoacylation ribozyme variant]	0.946	1.08	0.942	0.872	0.985	0.621
CCACACUUAAAGCUAUCGGUC [Fam1B.1 aminoacylation ribozyme variant]	0.762	1.03	0.887	1.1	0.915	0.89
CCACACUUAAAGUAAUCGGUC [Fam1B.1 aminoacylation ribozyme variant]	0.772	0.82	0.695	0.836	0.744	0.875
CCACACUUAACGCAAUCGGUC [Fam1B.1 aminoacylation ribozyme variant]	0.826	1.08	0.874	1.11	0.986	1.11
CCACACUUCAAACAAUAGGUC [Fam1B.1 aminoacylation ribozyme variant]	0.995	0.617	0.435	0.656	0.471	0.652
CCACACUUCAAACAAUCGGAC [Fam1B.1 aminoacylation ribozyme variant]	3.27	1.01	0.88	1	0.951	1.94
CCACACUUCAAACAAUCGGUG [Fam1B.1 aminoacylation ribozyme variant]	4.88	2.96	4.77	3.01	6.19	4.19
CCACACUUCAAACAAUCGGUU [Fam1B.1 aminoacylation ribozyme variant]	29.6	1.91	1.93	2.17	2.57	21.5
CCACACUUCAAACAAUUGGUC [Fam1B.1 aminoacylation ribozyme variant]	1.55	0.737	0.659	0.59	0.588	1
CCACACUUCAAACAGUCGGUC [Fam1B.1 aminoacylation ribozyme variant]	1.09	0.75	0.735	0.945	0.622	0.848
CCACACUUCAAACUAUCGGUC [Fam1B.1 aminoacylation ribozyme variant]	1.09	0.976	0.781	0.909	0.83	0.882
CCACACUUCAACCAAACGGUC [Fam1B.1 aminoacylation ribozyme variant]	0.797	0.872	0.628	0.846	0.729	0.727
CCACACUUCAACCAAUGGGUC [Fam1B.1 aminoacylation ribozyme variant]	0.603	0.685	0.499	0.759	0.593	0.377
CCACACUUCAACUAAUCGGUC [Fam1B.1 aminoacylation ribozyme variant]	22.8	0.859	0.753	0.925	1.04	11.6
CCACACUUCAAGAAAUCGGCC [Fam1B.1 aminoacylation ribozyme variant]	3.48	1.96	1.97	2.16	1.78	3.06
CCACACUUCAAGAAAUCGUUC [Fam1B.1 aminoacylation ribozyme variant]	0.735	0.472	0.482	0.602	0.529	0.399
CCACACUUCAAGAACUCGGUC [Fam1B.1 aminoacylation ribozyme variant]	0.548	0.836	0.696	1.01	1.01	0.586
CCACACUUCAAGCAAAAGGUC [Fam1B.1 aminoacylation ribozyme variant]	1.05	0.598	0.434	0.721	0.524	0.598
CCACACUUCAAGCAAACGCUC [Fam1B.1 aminoacylation ribozyme variant]	0.677	0.956	1.41	0.912	1.01	1.37
CCACACUUCAAGCAACCGAUC [Fam1B.1 aminoacylation ribozyme variant]	1.05	0.665	0.559	0.684	0.45	0.75
